Read-outs that look alike come from different tables or passages of the source.

The results in this text go back to PMC7566557 (Brain Communications, 2020).

The target of one data set is Myc-(C32G)CAP2 (UniProt P40123). Kind of data set: proximity ligation.
Data set [1] concerns the target cofilin (endogenous, primary hippocampal neurons) (rat (endogenous in primary hippocampal neurons)) (UniProt P45592). Kind of data set: proximity ligation.
Data set [2] concerns the molecule itself. The experiment in a line: non-reducing SDS-PAGE with Western blot. On the technique in general: In western blotting, separated proteins are transferred to a membrane and probed.
Data set [3] concerns the molecule itself. The experiment in a line: non-reducing SDS-PAGE with Western blot. The source holds these as a separate data set.

Sequence of cofilin (endogenous, primary hippocampal neurons) (rat (endogenous in primary hippocampal neurons)) (P45592 whole entry): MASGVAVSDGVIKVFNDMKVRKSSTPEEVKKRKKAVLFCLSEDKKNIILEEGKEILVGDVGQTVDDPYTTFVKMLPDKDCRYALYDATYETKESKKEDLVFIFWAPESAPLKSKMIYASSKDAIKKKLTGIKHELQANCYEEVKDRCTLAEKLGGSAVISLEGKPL

In the data set with Myc-(C32G)CAP2, “EGFP-CAP2 (from UniProt Q9CYT6 1-476) (natural protein)” registered a PLA clusters/μm of 0.566 clusters/μm and a PLA clusters/μm (cLTP) of 0.461 clusters/μm.

Take “Myc-(C32G)CAP2 (from UniProt P40123 1-477) (natural protein)”: in data set [1], the PLA clusters/μm is 0.0144 clusters/μm and the PLA clusters/μm (cLTP) is 0.0315 clusters/μm.

In the case of “Myc-CAP2 (from UniProt Q9CYT6 1-476) (natural protein)”, in data set [1], the PLA clusters/μm amounted to 0.032 clusters/μm, the PLA clusters/μm (CTRL) turned out to be 0.0317 clusters/μm and the PLA clusters/μm (cLTP) came out at 0.0984 clusters/μm.

B1: CAP2 (endogenous, primary hippocampal neurons) (natural protein)
chain: MADMLGLMQRLEFAVSRLERLSSGLHEPPGGCGEVNSLSRGIVAPSVEAFDKLINSMVAEFLKNSRVLAGDVETHAEMVHGAFQAQRAFLLMVSQHQQPQENEVAVLLKPISEKIQEIQTFRERNRGSDMFNHLSAVSESIAALGWIAVSPKPGPYVKEMNDAATFYTNRVLRDYKHSDLRHVDWVRSYLKIWSELQAYIKEHHTTGLTWSKTGPVASTASAFSILSSGPGLPPPPPPPPPPGPPPPFENEGGKEEPSPSRSALFAQLNQGEAITKGLRHVTDDKKIYKNPSLRAQGQIRSPTKTRTPSPTSSKSNSPQKHAPVLELEGKKWRVEYQEDRNDLVISETELKQVAYIFKCDKSTLQIKGKVNSITVDNCKKFGLVFDHVVGIVEVINSKDIQIQVMGRVPTISINKTEGCHLYLSKDALDCEIVSAKSSEMNVLVPQGDDYREFPIPEQFKTIWDGSKLITEPAEIMA
For orientation: stoichiometry N means the number of molecules, sites or subunits per partner or assembly. As to B1, the “stoichiometry N” value in data set [2] was found to be 2.

B2: CAP2 (endogenous, rat hippocampus) (natural protein)
chain: MADMLGLMQRLEFAVSRLERLSSGLHEPPGGCGEVNSLSRGIVAPSVEAFDKLINSMVAEFLKNSRVLAGDVETHAEMVHGAFQAQRAFLLMVSQHQQPQENEVAVLLKPISEKIQEIQTFRERNRGSDMFNHLSAVSESIAALGWIAVSPKPGPYVKEMNDAATFYTNRVLRDYKHSDLRHVDWVRSYLKIWSELQAYIKEHHTTGLTWSKTGPVASTASAFSILSSGPGLPPPPPPPPPPGPPPPFENEGGKEEPSPSRSALFAQLNQGEAITKGLRHVTDDKKIYKNPSLRAQGQIRSPTKTRTPSPTSSKSNSPQKHAPVLELEGKKWRVEYQEDRNDLVISETELKQVAYIFKCDKSTLQIKGKVNSITVDNCKKFGLVFDHVVGIVEVINSKDIQIQVMGRVPTISINKTEGCHLYLSKDALDCEIVSAKSSEMNVLVPQGDDYREFPIPEQFKTIWDGSKLITEPAEIMA
For B2, in data set [2], the “stoichiometry N” value was 2.

B3: CAP2 (endogenous, mouse hippocampus) (natural protein)
chain: MTDMAGLMERLERAVIRLEQLSAGLDGPPRGCGEVNGVNGGVAPSVEAFDKLINSMVAEFLKNSRVLAGDVETHAEMVHGAFQAQRAFLLMVSQYQQPQENEVAVLLKPISEKIQEIQTFRERNRGSNMFNHLSAVSESIAALGWIAVSPKPGPYVKEMNDAATFYTNRVLKDYKHSDLRHVDWVRSYLNIWSELQAYIREHHTTGLTWSKTGPVASTASAFSILSSGPGLPPPPPPPPPPGPPPPFENEDKKEEPSPSRSALFAQLNQGEAITKGLRHVTDDKKTYKNPSLRAQGQIRSPTKTHTPSPTSPKSNSPQKHTPVLELEGKKWRVEYQEDRNDLVISETELKQVAYIFKCDKSTLQIKGKVNSITVDNCKKFGLVFDHVVGIVEVINSKDIQIQVMGRVPTISINKTEGCHLYLSEDALDCEIVSAKSSEMNVLVPQDDDYREFPIPEQFKTIWDGSKLVTEPAEIMA
Regarding B3, the “stoichiometry N” value in data set [2] was determined as 2.

B4: Myc-CAP2 (natural protein)
chain: MTDMAGLMERLERAVIRLEQLSAGLDGPPRGCGEVNGVNGGVAPSVEAFDKLINSMVAEFLKNSRVLAGDVETHAEMVHGAFQAQRAFLLMVSQYQQPQENEVAVLLKPISEKIQEIQTFRERNRGSNMFNHLSAVSESIAALGWIAVSPKPGPYVKEMNDAATFYTNRVLKDYKHSDLRHVDWVRSYLNIWSELQAYIREHHTTGLTWSKTGPVASTASAFSILSSGPGLPPPPPPPPPPGPPPPFENEDKKEEPSPSRSALFAQLNQGEAITKGLRHVTDDKKTYKNPSLRAQGQIRSPTKTHTPSPTSPKSNSPQKHTPVLELEGKKWRVEYQEDRNDLVISETELKQVAYIFKCDKSTLQIKGKVNSITVDNCKKFGLVFDHVVGIVEVINSKDIQIQVMGRVPTISINKTEGCHLYLSEDALDCEIVSAKSSEMNVLVPQDDDYREFPIPEQFKTIWDGSKLVTEPAEIMA
For the molecule B4, in data set [3], the “stoichiometry N” value worked out at 2.

B5: CAP2 (endogenous, human hippocampus) (natural protein)
chain: MANMQGLVERLERAVSRLESLSAESHRPPGNCGEVNGVIAGVAPSVEAFDKLMDSMVAEFLKNSRILAGDVETHAEMVHSAFQAQRAFLLMASQYQQPHENDVAALLKPISEKIQEIQTFRERNRGSNMFNHLSAVSESIPALGWIAVSPKPGPYVKEMNDAATFYTNRVLKDYKHSDLRHVDWVKSYLNIWSELQAYIKEHHTTGLTWSKTGPVASTVSAFSVLSSGPGLPPPPPPLPPPGPPPLFENEGKKEESSPSRSALFAQLNQGEAITKGLRHVTDDQKTYKNPSLRAQGGQTQSPTKSHTPSPTSPKSYPSQKHAPVLELEGKKWRVEYQEDRNDLVISETELKQVAYIFKCEKSTIQIKGKVNSIIIDNCKKLGLVFDNVVGIVEVINSQDIQIQVMGRVPTISINKTEGCHIYLSEDALDCEIVSAKSSEMNILIPQDGDYREFPIPEQFKTAWDGSKLITEPAEIMA
As to B5, in data set [2], the “stoichiometry N” value turned out to be 2.
